“And” between values parts separate entries of the source, which are not always exact repeats. Equal values may be shown once.

The values below come from US20180172683A1, “METHODS FOR ANALYZING THE INTERACTION BETWEEN A TARGET PROTEIN AND A LIGAND” (UNIVERSITY OF SOUTHERN CALIFORNIA, priority 2015, published 2018).

The target of assay [1] is B-cell lymphoma extra-large protein (Bcl-xL), first 209 amino acids with N-terminal avitag (UniProt Q07817). The assay is described as follows: reverse equilibrium assay, divalent model; percent of monovalently bound mAb that does not interact with immobilized Bcl-xL.
B-cell lymphoma extra-large protein (Bcl-xL), first 209 amino acids with N-terminal avitag, sequence (Q07817 other isoform, or with tags, fused parts or gaps): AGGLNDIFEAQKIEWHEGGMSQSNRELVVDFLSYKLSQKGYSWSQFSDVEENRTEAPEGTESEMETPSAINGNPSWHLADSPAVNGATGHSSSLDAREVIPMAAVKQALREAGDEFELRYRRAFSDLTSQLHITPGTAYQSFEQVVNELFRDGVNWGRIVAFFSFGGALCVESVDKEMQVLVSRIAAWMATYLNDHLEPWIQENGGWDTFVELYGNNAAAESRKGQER
Assay [2] has the same target. The assay is described as follows: Kd2 (monovalently bound mAb to a second Bcl-xL), divalent model, reverse assay only, known [L]0.
For assay [3] the target is unchanged. The assay is described as follows: Kd1 (free mAb to Bcl-xL), divalent model, forward and reverse equilibrium assays combined, known [L]0.
For assay [4] the target is unchanged. The assay is described as follows: Kd2 (monovalently bound mAb to a second Bcl-xL), divalent model, reverse assay only, Kd and [L]0 fit simultaneously.
The target is the same in assay [5]. In words: forward equilibrium assay, Kd and [L]0 fit simultaneously, monovalent and divalent models.
Assay [6] has the same target. The assay is described as follows: forward equilibrium assay, Kd-only fit, divalent model.
Assay [7] has the same target. The assay is described as follows: equilibrium AMMP, divalent model.
Assay [8] has the same target. The assay is described as follows: equilibrium ELISA, divalent model. On the technique in general: ELISA stands for enzyme-linked immunosorbent assay.
Assay [9] shares this target. In words: forward equilibrium assay, Kd-only fit, monovalent model (said to fit poorly).
For assay [10] the target is unchanged. In words: Kd1 (free mAb to Bcl-xL), divalent model, forward and reverse equilibrium assays combined, Kd and [L]0 fit simultaneously.

As for “54H6 monoclonal antibody against Bcl-xL (commercial)”, the percent of monovalently bound mAb not interacting with immobilized Bcl-xL in [1] was 74% and 73%. Further, the Kd in assay [2] worked out at 3.3 nM; in assay [3], 0.021 nM; in assay [4], 4 nM; in assay [5] it was 0.011 nM; in assay [6], 0.014 nM; in assay [7] it was 0.012 nM. The equilibrium dissociation constant (Kd) stood at 0.02 nM in assay [8], 0.038 nM in assay [9] and 0.019 nM in [10].

As a reminder, the Kd is the constant that tells how readily two partners part at equilibrium.
